Reference: publication PMC10397247
Values belong to the binder of their own block, whether it stands above or below them.

Tests used:
Experiment in all cases: two-hybrid library CCNG1;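 note: natural log of median RNA to DNA barcode read ratio; higher means stronger binding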
P6A-bN = molecular target: T1, P6A-bN
T1 chain: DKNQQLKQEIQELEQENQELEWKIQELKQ

P5A-bN = molecular target: T2, P5A-bN
T2 chain: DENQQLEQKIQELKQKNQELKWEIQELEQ

P7A-bN = molecular target: T3, P7A-bN
T3 chain: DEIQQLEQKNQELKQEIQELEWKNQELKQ

P9A-bN = molecular target: T4, P9A-bN
T4 chain: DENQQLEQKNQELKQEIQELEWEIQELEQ

P8A-bN = molecular target: T5, P8A-bN
T5 chain: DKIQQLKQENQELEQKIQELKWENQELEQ

P3A-bN = molecular target: T6, P3A-bN
T6 chain: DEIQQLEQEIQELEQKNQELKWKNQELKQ

P4A-bN = molecular target: T7, P4A-bN
T7 chain: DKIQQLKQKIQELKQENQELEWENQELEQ

P5A-bS = molecular target: T8, P5A-bS
T8 chain: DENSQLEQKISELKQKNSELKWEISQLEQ

P3A-bS = molecular target: T9, P3A-bS
T9 chain: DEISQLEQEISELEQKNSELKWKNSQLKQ

P7A-bS = molecular target: T10, P7A-bS
T10 chain: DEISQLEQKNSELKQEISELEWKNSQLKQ

P9A-bS = molecular target: T11, P9A-bS
T11 chain: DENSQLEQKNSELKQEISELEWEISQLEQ

P8A-bS = molecular target: T12, P8A-bS
T12 chain: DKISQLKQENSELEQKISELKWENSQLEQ

P4A-bS = molecular target: T13, P4A-bS
T13 chain: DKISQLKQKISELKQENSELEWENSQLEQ

interaction score (P6A-bN): 1.62
interaction score (P5A-bN): -1.81
interaction score (P7A-bN): -1.53
interaction score (P9A-bN): -1.14
interaction score (P8A-bN): -0.311
B1: P5A-bN (peptide)
chain: DENQQLEQKIQELKQKNQELKWEIQELEQ

interaction score (P6A-bN): 0.0905
interaction score (P5A-bN): -1.91
interaction score (P7A-bN): 0.502
interaction score (P3A-bN): -0.693
interaction score (P4A-bN): 1.79
interaction score (P9A-bN): 0.0484
interaction score (P8A-bN): -0.0492
B2: P3A-bN (peptide)
chain: DEIQQLEQEIQELEQKNQELKWKNQELKQ

interaction score (P5A-bS): -0.938
interaction score (P3A-bS): -1.29
interaction score (P7A-bS): -0.377
interaction score (P9A-bS): 0.297
interaction score (P8A-bS): -0.303
interaction score (P4A-bS): 1.45
B3: P3A-bS (peptide)
chain: DEISQLEQEISELEQKNSELKWKNSQLKQ
